Measurements published in patent publication US20020128175A1.

Target: low density lipoprotein (LDL) from human plasma (human) (UniProt P04114)
Test: agarose gel, stained bands excised and counted with 125I-labeled peptide

B1: Ac-hE18A-NH2 (end protected analog of hApoE[141-150]-18A) (peptide)
peptide: Ac-LRKLRKRLLRDWLKAFYDKVAEKLKEAF-NH2
modifications: also: 125I-labelled where stoichiometry was determined
  stoichiometry (molecules of peptide per LDL) (molecules of peptide per LDL): 30
